# Measurements from paper PMC7823470, “Arabidopsis Plant Natriuretic Peptide Is a Novel Interactor of Rubisco Activase” (Life, 2020).
# Entries after “also recorded” stand apart in the source; their conditions may differ. Bridge positions count the residues as written; N and C are the ends. Ends that are not written are not given here. Peptide text beside a SMILES is read from it. * marks the point of attachment. Biotin = O=C1N[C@H]2[C@H](CS[C@H]2CCCCC(=O)*)N1
# T1: purified recombinant N-terminally His-tagged rubisco activase (rRCA) (Arabidopsis thaliana, UniProt P10896 59-474)
# T1 construct: Rubisco activase (RCA), A. thaliana, At2g39730; also called recombinant RCA; source: E. coli BL21 (DE3) One Shot, purified (Ni-NTA beads, HisTrap HP column); not shown: His6, N-terminal, kept
# T1 sequence (looked up): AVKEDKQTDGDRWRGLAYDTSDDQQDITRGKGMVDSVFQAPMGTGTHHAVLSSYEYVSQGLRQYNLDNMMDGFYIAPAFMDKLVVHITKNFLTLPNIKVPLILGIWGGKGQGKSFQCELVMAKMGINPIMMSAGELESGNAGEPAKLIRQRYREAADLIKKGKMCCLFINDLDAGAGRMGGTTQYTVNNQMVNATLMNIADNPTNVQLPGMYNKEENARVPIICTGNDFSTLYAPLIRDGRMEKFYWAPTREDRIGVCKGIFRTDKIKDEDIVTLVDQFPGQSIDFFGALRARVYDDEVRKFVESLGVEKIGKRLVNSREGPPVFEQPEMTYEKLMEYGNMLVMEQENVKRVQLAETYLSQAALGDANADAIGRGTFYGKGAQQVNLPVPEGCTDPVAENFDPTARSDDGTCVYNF
# T2: recombinant RCA (rRCA) (Arabidopsis thaliana, UniProt P10896)
# T2 construct: made in house; host or cells: E. coli BL21 (DE3) One Shot
# T2 sequence (P10896 whole entry, looked up): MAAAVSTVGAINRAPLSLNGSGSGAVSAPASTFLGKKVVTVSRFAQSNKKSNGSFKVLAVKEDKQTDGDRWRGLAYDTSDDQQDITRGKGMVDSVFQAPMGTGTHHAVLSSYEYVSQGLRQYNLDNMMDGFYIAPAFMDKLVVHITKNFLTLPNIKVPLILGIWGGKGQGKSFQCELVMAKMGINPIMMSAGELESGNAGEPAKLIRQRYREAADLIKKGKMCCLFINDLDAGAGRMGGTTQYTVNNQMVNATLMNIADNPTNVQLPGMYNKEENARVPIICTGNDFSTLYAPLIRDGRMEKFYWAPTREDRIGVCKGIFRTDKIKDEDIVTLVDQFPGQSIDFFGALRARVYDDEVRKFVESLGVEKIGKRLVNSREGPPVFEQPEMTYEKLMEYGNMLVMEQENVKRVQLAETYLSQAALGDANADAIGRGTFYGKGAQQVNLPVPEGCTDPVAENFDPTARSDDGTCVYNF
# How the values were obtained:
# recombinant RCA (rRCA) [1] = biological target: T3, recombinant RCA (rRCA) (Arabidopsis thaliana, UniProt P10896); experiment: biochemical; type: binding
# T3 construct: made in house; host or cells: E. coli BL21 (DE3) One Shot
# Description: (§1) SPR experiments were performed at 20 °C on a Biacore T100 instrument (GE Healthcare LifeSciences) with the use of Series S CM5 […] sensor chips as previously described. Data were acquired with Biacore T100 control software (version 2.0.2, GE Healthcare LifeSciences, Chicago, IL, USA). Kinetic analyses were performed at the flow of 100 μL min^−1 with pAtPNP-A (at 3.78 μM and consecutive two-fold dilutions; 11 injections included) […], whereas recombinant His-tagged RCA was used as […] immobilized on the active surface of the series S CM5 sensor chip with amine coupling kit. The surface was regenerated with glycine solution, pH 2.0 (GE Healthcare LifeSciences). The final sensorgram was generated with Scrubber (BioLogic Software Pty Ltd., Campbell, Australia).
# In both analyses the ligand was immobilized at the same levels, analytes were injected at the same concentration and conditions of runs kept constant.
# [2] = biological target: T1, purified recombinant N-terminally …; experiment: SPR; kinetic analysis: His-tagged rRCA immobilised by amine coupling on a Series S CM5 chip, pAtPNP-A injected at 3.78 μM and consecutive two-fold dilutions (11 injections), flow 100 μL/min, regeneration with glycine pH 2.0; Biacore T100, 20 °C; conditions: both partners purified
# [3] = biological target: T1, purified recombinant N-terminally …; experiment: as above; conditions: both partners purified; remark: listed apart in the source
# recombinant RCA (rRCA) [4] = biological target: T2, recombinant RCA (rRCA); experiment: SPR, rAtPNP-A analyte over immobilized rRCA (CM5 chip); type: binding; conditions: for SPR binding to rRCA: rRCA amine-coupled on CM5 chip, rAtPNP-A as analyte, 20 °C, Biacore T100
# Description: as §1
# Figure 2 AtPNP-A directly interacts with Arabidopsis RCA in vitro. (a) Molecular docking of AtPNP-A and RCA monomer. Surface model depicts predicted docking of AtPNP-A (blue), with its active region (cyan), and RCA (tan). The structure of AtPNP-A was predicted using the iterative threading assembly refinement (I-TASSER; version 5.1) method, while the 4W5W crystal structure of A. thaliana RCA [33] was derived from RCSB PDB. Protein—protein docking was performed using ClusPro). The models were analyzed and visualized using UCSF Chimera (version 1.10.2). (b) Recombinant protein preparations used in SPR analyses. (c) Exemplar sensorgrams depicting referenced binding response of the recombinant RCA and AtPNP-A proteins.
# [5] = system: A. thaliana (Col-0) mesophyll cell protoplasts; experiment: Mesophyll cell protoplast (MCP) volume assay; type: cell-based, Arabidopsis thaliana; conditions: MCPs in 0.4 M mannitol, 20 min; 100 nM peptide or 1 μg mL^−1 rAtPNP-A; confocal microscopy, n = 50
# Text: Figure 1 Biologically active peptide containing the active region of AtPNP-A binds to RCA. (a) Schematics showing domain organization of AtPNP-A and the amino acid sequence of N-terminally biotinylated peptides used in the affinity-based experiments. pAtPNP-A—a peptide containing the active site of AtPNP-A; pScr—the corresponding scrambled peptide; SP—signal peptide. Cysteine residues forming a disulfide bond are underlined. (b) Assaying biological activity of the pAtPNP-A and purified recombinant AtPNP-A (rAtPNP-A). A. thaliana (Col-0) mesophyll cell protoplasts suspended in 0.4 M mannitol were treated with either water, or 100 nM pScr (negative control), or with 100 nM pAtPNP-A, or with 1 μg mL^−1 of rAtPNP-A protein for 20 min at room temperature. In each treatment, 50 randomly selected protoplasts with diameter >20 μm were included in quantitative analysis (scale bar = 20 μm). Protoplast volume was measured, and the data obtained from an exemplar experiment are plotted. […]
# Biological activity of the synthetic peptides was verified in mesophyll cell protoplast (MCP) volume assay. […] Data are expressed as mean ± SD, and statistical analyses of one-way ANOVA followed by Tukey-Kramer multiple comparison test were performed using Prism 8.0 (GraphPad Software, San Diego, CA, USA).
molecule,measurement,setting,value
CC(C)C[C@@H]1NC(=O)[C@H](CC(N)=O)NC(=O)[C@H](CC(N)=O)NC(=O)[C@H](CCCCN)NC(=O)[C@H](C(C)C)NC(=O)CNC(=O)[C@H](C(C)C)NC(=O)[C@H](C(C)C)NC(=O)[C@H](CC(C)C)NC(=O)[C@H]([C@@H](C)O)NC(=O)[C@H](CCC(=O)O)NC(=O)[C@H](CCCNC(=N)N)NC(=O)[C@H](CCC(N)=O)NC(=O)[C@H]([C@@H](C)O)NC(=O)CNC(=O)[C@H](Cc2ccc(O)cc2)NC(=O)[C@@H](NC(=O)[C@H](C)NC(=O)[C@H](CO)NC(=O)[C@H](CCCNC(=N)N)NC(=O)[C@@H](NC(=O)[C@H](Cc2ccc(O)cc2)NC(=O)[C@@H]2CCCN2C(=O)[C@@H]2CCCN2C(=O)[C@H](CC(=O)O)NC(=O)[C@H](Cc2ccc(O)cc2)NC(=O)[C@H](Cc2ccc(O)cc2)NC(=O)[C@@H](NC(=O)[C@H](C)NC(=O)CCCC[C@@H]2SC[C@@H]3NC(=O)N[C@@H]32)C(C)C)[C@@H](C)O)CSSC[C@@H](C(=O)NCC(=O)N[C@@H](CCCNC(=N)N)C(=O)N[C@@H](CCCNC(=N)N)C(=O)N[C@@H](Cc2ccc(O)cc2)C(=O)O)NC(=O)[C@H](C)NC(=O)[C@H](CCCNC(=N)N)NC(=O)CNC(=O)[C@H](CC(N)=O)NC(=O)[C@H](CCC(N)=O)NC(=O)[C@H](Cc2c[nH]c3ccccc23)NC1=O [pAtPNP-A] (Biotin-AVYYDPPYTRSACYGTQRETLVVGVKNNLWQNGRACGRRY-OH; disulfide 13-36),"dissociation constant, range in words",recombinant RCA (rRCA) [1],sub-micromolar range; also recorded: nanomolar range
same,kon,"recombinant RCA (rRCA) [1]; read-out: ka (±SE), association rate constant",16300 M⁻¹ s⁻¹
same,koff,"recombinant RCA (rRCA) [1]; read-out: kd (±SE), dissociation rate constant",0.000852 s⁻¹
"Biotin-YDPPYTRSACYGTQRETLVVGVKNNLWQNGRACG (peptide, UniProt Q9ZV52 33-66, looked up, disulfide 10-33 (inferred), AtPNP-A (plant natriuretic peptide A), A. thaliana, At2g18660, residues 33-66 (active region); Peptides were bought with or without the N-terminal biotin tag; also called biologically active fragment of AtPNP-A; source: synthetic peptide, bought: GenScript (purity at least 95%, HPLC)) [pAtPNP-A, N-terminally biotinylated AtPNP-A(33–66) peptide containing the active region of AtPNP-A]",Kd,[2],52.3 nM
same,Kd,[3],53 nM
"rAtPNP-A: purified N-terminally His-tagged AtPNP-A protein (protein, left off: His6, N-terminal, kept, purified N-terminally His-tagged AtPNP-A protein) AQGKAVYYDPPYTRSACYGTQRETLVVGVKNNLWQNGRACGRRYRVRCIGATYNFDRACTGRTVDVKVVDFCREPCNGDLNLSRDAFRVIANTDAGNIRVVYTPI","SPR binding to RCA (abstract, in words)","recombinant RCA (rRCA) [4]; full-length recombinant AtPNP-A, SPR",bind specifically to RCA
same,SPR binding to rRCA,recombinant RCA (rRCA) [4],bound to the rRCA protein immobilized on the active surface
same,SPR binding to rRCA,recombinant RCA (rRCA) [4]; listed as recombinant AtPNP-A,confirmed by us in vitro
same,Effect on protoplast volume,[5],protoplast volume increase
